B2: BC: EloB (1-118) / EloC (17-112) heterodimer (other)
chain 1: MGDVFLMIRRHKTTIFTDAKESSTVFELKRIVEGILKRPPDEQRLYKDDQLLDDGKTLGECGFTSQTARPQAPATVGLAFRADDTFEALCIEPFSSPPELPDVMKPQDSGSSANEQAVQENLYFQ
chain 2: MGYVKLISSDGHEFIVKREHALTSGTIKAMLSGPGQFAENETNEVNFREIPSHVLSKVCMYFTYKVRYTNSSTEIPEFPIAPEIALELLMAANFLDC
notes: also called EloBC; EloBC heterodimer

For data set [1], the target named is T1, BCvif95-192: EloB (1-118) / EloC (17-112) / Vif (95-192) (human; HIV-1 HXB2, UniProt P69723 95-192).
T1 construct: range 95-192
Put plainly: ITC, opposite injection order; BCvif95-192 titrated into Cul5(N). (In general: Isothermal titration calorimetry measures the heat released or taken up as one component is titrated into another.)

The target in data set [2] is T1, BCvif95-192: EloB (1-118) / EloC …. In words: ITC, 30 C; Cul5(N) titrated into the complex.
In data set [3] the target is B2. In words: ITC, 30 C; untagged Cul5(N) titrated into EloBC.
Data set [4] deals with T1, BCvif95-192: EloB (1-118) / EloC ….
Data set [5] has as its target T2, BCvifSS: EloB (1-118) / EloC (17-112) / vif (95-192) (A123S, L124S) (human; HIV-1 HXB2, UniProt P69723 95-192).
T2 construct: range 95-192
Put plainly: ITC, 30 C; A123S/L124S mutant.

In data set [6] the target is T3, BCvif95-160: EloB (1-118) / EloC (17-112) / Vif (95-160) (human; HIV-1 HXB2, UniProt P69723 95-160).
Data set [7] addresses T4, EloB(1-104)/EloC(17-112)/Vif(102-173) (human; HIV-1 (group M, subtype B), UniProt Q15370 2-104; Q15369 18-112; P31820 102-173).
Data set [8] deals with T5, EloB(1-118)/EloC(17-112)/Vif(95-173) (human; HIV-1 (group M, subtype B), UniProt Q15370 2-118; Q15369 18-112; P31820 95-173).
Data set [9] deals with B2.
In data set [10] the target is T2, BCvifSS: EloB (1-118) / EloC (17-112) / ….
In data set [11] the target is T6, BCvifVF: EloB (1-118) / EloC (17-112) / vif (95-192) (A123V, L124F) (human; HIV-1 HXB2, UniProt P69723 95-192).
For data set [12], the target named is T3, BCvif95-160: EloB (1-118) / EloC …. Put plainly: ITC, 30 C.
Data set [13] has as its target T4, EloB(1-104)/EloC(17-112)/Vif(102-173). In words: ITC, 30 C.
For data set [14], the target named is T5, EloB(1-118)/EloC(17-112)/Vif(95-173). In words: ITC, 30 C.
The target in data set [15] is T7, BCvif95-155: EloB (1-118) / EloC (17-112) / Vif (95-155) (human; HIV-1 HXB2, UniProt P69723 95-155).
T7 construct: range 95-155
In words: ITC, 30 C.

The target in data set [16] is T6, BCvifVF: EloB (1-118) / EloC (17-112) / …. In words: ITC, 30 C; A123V/L124F mutant.
Data set [17] deals with the molecule itself. Put plainly: sedimentation velocity AUC; self-association.

B1: Cul5(N), human Cullin5 residues 2-384 (V341R, L345D) after removal of GST (other)
chain: GPMHMGGSTSNLLKNKGSLQFEDKWDFMRPIVLKLLRQESVTKQQWFDLFSDVHAVCLWDDKGPAKIHQALKEDILEFIKQAQARVLSHQDDTALLKAYIVEWRKFFTQCDILPKPFCQLEITLMGKQGSNKKSNVEDSIVRKLMLDTWNESIFSNIKNRLQDSAMKLVHAERLGEAFDSQLVIGVRESYVNLCSNPEDKLQIYRDNFEKAYLDSTERFYRTQAPSYLQQNGVQNYMKYADAKLKEEEKRALRYLETRRECNSVEALMECCVNALVTSFKETILAECQGMIKRNETEKLHLMFSLMDKVPNGIEPMLKDLEEHIISAGLADMVAAAETITTDSEKYREQLDTLFNRFSKLVKEAFQDDPRFLTARDKAYKAVVNDATIFK
notes: also called untagged Cul5(N)
For B1, the equilibrium dissociation constant (Kd) stood at 420 nM in [1]; 327 nM in [2]; 6350 nM in [3]; 397 nM in data set [5]; 285 nM in data set [12]; 288 nM in data set [13]. Also, the Kd in data set [14] came to 337 nM; in data set [15], 213 nM; in data set [16], 847 nM. Also, the ΔH in data set [4] was -5210; in data set [6], -5090; in data set [7], -4950; in [8], -5630; in [9], -9200; in data set [10], -7380. The molecule further registered a ΔH in data set [11] of -4550. Also, the ΔS in data set [4] is 12.6; in data set [6], 13; in data set [7], 13.6; in data set [8] it was 11.1; in data set [9], -6.39; in [10], 4.97. The ΔS in data set [11] was 13.1. Further, the N was found to be 0.826 in [7], 0.869 in data set [8] and 0.924 in [9].
For B2, the binding result in data set [17] is “no binding (tested: 0.19, 0.37, and 1.88 mg ml^-1)”.

As usually defined, the Kd is a measure of binding affinity in units of concentration. Higher therefore signals a looser complex.

(Values after patent US20120271036A1 (UNIVERSITY OF ROCHESTER, published 2012).)
